# According to patent US20060263802A1:
# B1: human monoclonal antibody CR57 (antibody, V domains shown)
# VH: QVQLVQSGAEVKKPGSSVKVSCKASGGTFNRYTVNWVRQAPGQGLEWMGGIIPIFGTANYAQRFQGRLTITADESTSTAYMELSSLRSDDTAVYFCARENLDNSGTYYYFSGWFDPWGQGTLVTVSS
# VL: QSALTQPRSVSGSPGQSVTISCTGTSSDIGGYNFVSWYQQHPGKAPKLMIYDATKRPSGVPDRFSGSKSGNTASLTISGLQAEDEADYYCCSYAGDYTPGVVFGGGTKLTVL
# B2: human monoclonal antibody CRJA (antibody, V domains shown)
# VH: EVQLLESGGGLVQPGGSLRLSCAASGFTFSNYAMSWVRQAPGKGLEWVSAISASGHSTYLADSVKGRFTISRDNSKNTLYLQMNSLRAEDTAVYYCAKDREVTMIVVLNGGFDYWGQGTRVTVSS
# VL: EIVLTQSPATLSLSPGERATLACRASQTASRYLAWYQQKPGQAPRLLIYDTSNRATGIPARFSGSGSGTDFTLSISSLEPEDFAVYYCQQRFNWPWTFGQGTKVEFK
# Key:
# [1] = molecular target: linear peptide … (rabies virus strain ERA); assay: PEPSCAN ELISA, linear peptide, antibody 10 µg/ml
# [2] = molecular target: linear peptide … (rabies virus strain ERA); assay: PEPSCAN ELISA, linear peptide, 10 µg/ml
Binder,OD value [1],OD [2]
B1,364,–
B2,1030,96 OD
